According to publication PMC4040282 (Physical chemistry chemical physics : PCCP, 2014):
Changes are numbered by the printed parent chain. Names may count otherwise. Like-named read-outs stand apart in the source and are kept apart here. Blank lines part the entries; values can stand above or below the binder they belong to.

Legend:
[1] = biological target: (p50(248-350)/RelA(190-321)) heterodimer, biotinylated (murine, UniProt P25799 248-350; Q04207 190-321, biotin PEO maleimide (on the added N-terminal cysteine)); experiment: SPR
[2] = biological target: T1, N-terminal hexahistidine-NFκB (His6-p50(39-350)/RelA(19-321)) heterodimer (UniProt P25799 39-350; Q04207 19-321); experiment: stopped-flow fluorescence
[3] = biological target: T1, N-terminal hexahistidine-NFκB …; experiment: stopped-flow fluorescence; remark: listed apart in the source

Kd [1]: 0.172 ± 0.004 nM
kon [2]: 1.4e+07 M⁻¹ s⁻¹
B1: Human wild-type IκBα(67-287) (domain or fragment, UniProt P25963 67-287, looked up)
chain: KQQLTEDGDSFLHLAIIHEEKALTMEVIRQVKGDLAFLNFQNNLQQTPLHLAVITNQPEIAEALLGAGCDPELRDFRGNTPLHLACEQGCLASVGVLTQSCTTPHLHSILKATNYNGHTCLHLASIHGYLGIVELLVSLGADVNAQEPCNGRTALHLAVDLQNPDLVSLLLKCGADVNRVTYQGYSPYQLTWGRPSTRIQQQLGQLTLENLQMLPESEDEE

kon [3]: 3.8e+06 M⁻¹ s⁻¹
Kd [1]: 0.155 ± 0.014 nM
kon [2]: 1.1e+07 M⁻¹ s⁻¹
B2: IκBα(67-287) E282W (domain or fragment, human, UniProt P25963 67-287, looked up)
chain: B1 chain with E216W

Kd [1]: 0.462 ± 0.008 nM
kon [2]: 1.4e+07 M⁻¹ s⁻¹
B3: IκBα(67-287) P261F (domain or fragment, human, UniProt P25963 67-287, looked up)
chain: B1 chain with P195F
